Assay results as given in publication PMC6212719.

Key:
[1] = target: T1, MtbRNAP core (alpha2 beta beta' omega);sigma B (Mycobacterium …, UniProt P9WGZ1;P9WGY9;P9WGY7;P9WGY5;P9WGI5 1-347;1-1178;1-1316;1-110;1-323, |); experiment: EMSA
[2] = target: MtbRNAP core (alpha2 beta beta' omega);sigma B;RbpA (Mycobacterium …, UniProt P9WGZ1;P9WGY9;P9WGY7;P9WGY5;P9WGI5;P9WHJ5 1-347;1-1178;1-1316;1-110;1-323;1-111, ||); experiment: EMSA
[3] = target: MtbRNAP core (alpha2 beta beta' omega);sigma B;RbpA KKAA (Mycobacterium …, UniProt P9WGZ1;P9WGY9;P9WGY7;P9WGY5;P9WGI5;P9WHJ5 1-347;1-1178;1-1316;1-110;1-323;1-111, ||K73A;K74A); experiment: EMSA
[4] = target: MtbRNAP core (alpha2 beta beta' omega);sigma B;RbpA R79A (Mycobacterium …, UniProt P9WGZ1;P9WGY9;P9WGY7;P9WGY5;P9WGI5;P9WHJ5 1-347;1-1178;1-1316;1-110;1-323;1-111, ||R79A); experiment: KMnO4 footprinting
[5] = target: T1, MtbRNAP core (alpha2 beta beta' …); experiment: EMSA; remark: listed apart in the source

Row | Binder | Kd [1] | Kd [2] | binding result [3] | binding result [4] | binding result [5]
1 | sigAP-TGTG (dsDNA) DNA 1: CACTGAAACTTGCCCGCTCGGGCTGTACTCGTGCGCAGTTGTGTTACAATGGTCAGCGGCGGCCGCCCGACCGATAGCGCGCGAGTATTCACGCTGATATCAACGC DNA 2: GCGTTGATATCAGCGTGAATACTCGCGCGCTATCGGTCGGGCGGCCGCCGCTGACCATTGTAACACAACTGCGCACGAGTACAGCCCGAGCGGGCAAGTTTCAGTG | 117 nM | 42 nM | binds | binds | 
2 | sigAP-TG1 (dsDNA) DNA 1: CACTGAAACTTGCCCGCTCGGGCTGTACTCGTGCGCAGTAATGTTACAATGGTCAGCGGCGGCCGCCCGACCGATAGCGCGCGAGTATTCACGCTGATATCAACGC DNA 2: GCGTTGATATCAGCGTGAATACTCGCGCGCTATCGGTCGGGCGGCCGCCGCTGACCATTGTAACATTACTGCGCACGAGTACAGCCCGAGCGGGCAAGTTTCAGTG |  |  |  |  | binds
